Target: EGF-MMP (recombinant epidermal growth factor with N-terminal PLP reactive site AKT, polyhistidine tag and MMP cleavage site VPLSLYSG)
Sequence (chain, as listed by the source): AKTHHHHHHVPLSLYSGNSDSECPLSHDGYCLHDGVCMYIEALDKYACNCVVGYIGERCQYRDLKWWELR

B1: Recombinant, human pro-MMP-9 expressed in CHO cells, activated with amino-phenyl mercuric acetate (APMA) (protein)
chain: APRQRQSTLVLFPGDLRTNLTDRQLAEEYLYRYGYTRVAEMRGESKSLGPALLLLQKQLSLPETGELDSATLKAMRTPRCGVPDLGRFQTFEGDLKWHHHNITYWIQNYSEDLPRAVIDDAFARAFALWSAVTPLTFTRVYSRDADIVIQFGVAEHGDGYPFDGKDGLLAHAFPPGPGIQGDAHFDDDELWSLGKGVVVPTRFGNADGAACHFPFIFEGRSYSACTTDGRSDGLPWCSTTANYDTDDRFGFCPSERLYTQDGNADGKPCQFPFIFQGQSYSACTTDGRSDGYRWCATTANYDRDKLFGFCPTRADSTVMGGNSAGELCVFPFTFLGKEYSTCTSEGRGDGRLWCATTSNFDSDKKWGFCPDQGYSLFLVAAHEFGHALGLDHSSVPEALMYPMYRFTEGPPLHKDDVNGIRHLYGPRPEPEPRPPTTTTPQPTAPPTVCPTGPPTVHPSERPTAGPTGPPSAGPTGPPTAGPSTATTVPLSPVDDACNVNIFDAIAEIGNQLYLFKDGKYWRFSEGRGSRPQGPFLIADKWPALPRKLDSVFEERLSKKLFFFSGRQVWVYTGASVLGPRRLDKLGLGADVAQVTGALRSGRGKMLLFSGRRLWRFDVKAQMVDPRSASEVDRMFPGVPLDTHDVFQYREKAYFCQDRFYWRVSSRSELNQVDQVGYVTYDILQCPED
For B1, the “conversion to the cleaved product by integration of MALDI-TOF data” value was “over 99% conversion to the cleaved product” and the “molecular weight by MALDI-TOF after incubation with MMP-9 (cleavage)” value was “After 2 hours, the molecular weight decreased from 8.16 kDa to 6.64 kDa, in precise agreement with the theoretical molecular weight of cleaved EGFMMP (6.64 kDa)”.

Source: US20190038796
